The target in assay [1] is T1, soluble TACI protein, fluorescently labeled (UniProt O14836 1-165, limits assumed, fluorescent label (not specified)).
T1 construct: Labeled soluble protein used to stain CAR T cells in flow cytometry; also called sTACI; fluorescent TACI
T1 sequence (looked up): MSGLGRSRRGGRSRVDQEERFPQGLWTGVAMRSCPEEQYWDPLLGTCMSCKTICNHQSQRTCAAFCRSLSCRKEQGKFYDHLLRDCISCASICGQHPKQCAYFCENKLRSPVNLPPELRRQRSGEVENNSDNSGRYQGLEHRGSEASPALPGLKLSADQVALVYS
As to the kind of experiment: flow cytometry, fluorescent soluble TACI titrated 0.01 to 1000 nM on CAR T cells, percentage TACI+, N=3. On the procedure: (§1) FIGS. 25A-25B show measurements of binding of soluble TACI protein to untransduced T cells, and to T cells expressing anti-TACI H-L, anti-TACI L-H, or anti-BCMA. Cells were incubated with fluorescent soluble TACI protein at various concentrations, after which fluorescence of the cells was measured using flow cytometry, represented as percentage of cells positive for TACI (FIG. 25A) or as median fluorescence intensity (MFI) relative to signal measured in untransduced cells (FIG. 25B).
(§2) To evaluate the expression, binding efficacy, and binding specificity of anti-TACI CARs, normal donor T cells were transduced with anti-TACI H-L, anti-TACI L-H, or anti-BCMA and transduction efficiency was evaluated by measuring the percentage of each T cell population positive for mCherry expression by flow cytometry. […] To compare binding efficiency and specificity of different CARs, T cells expressing each CAR construct were incubated with fluorescently-labeled soluble TACI and analyzed by flow cytometry.
(In flow cytometry, cells or beads pass a laser one at a time.)

Assay [2] deals with T1, soluble TACI protein, fluorescently …. As to the kind of experiment: flow cytometry, fluorescent soluble TACI titrated 0.01 to 1000 nM on CAR T cells, percentage TACI+ (panel Soluble binding of TACI), N=3. From the text: (§3) The top two plots show binding of fluorescent BCMA and the bottom two plots show binding of fluorescent TACI to anti-TACI H-L CAR, anti-TACI L-H CAR, anti-BCMA, anti-TACI/anti-BCMA bispecific CAR, anti-BCMA/anti-TACI bispecific CAR, or untransduced T cells. The two left plots show the percentage of cells positive for BCMA or TACI. The two right plots show median fluorescence intensity for each cell population relative to untransduced cells.
(§4) To test the efficacy of bispecific CAR T cells to bind their respective antigens, T cells were either left untransduced, or transduced with anti-TACI H-L CAR, anti-TACI L-H CAR, anti-BCMA CAR, anti-TACI/anti-BCMA bispecific CAR, or anti-BCMA/anti-TACI bispecific CAR, and were tested for their binding of soluble antigens.

The next assay deals with T2, soluble BCMA, labeled (UniProt Q02223 1-54, fluorescent label (not specified)).
T2 construct: Labeled soluble protein used to stain CAR T cells in flow cytometry; also called sBCMA; fluorescent BCMA
T2 sequence (looked up): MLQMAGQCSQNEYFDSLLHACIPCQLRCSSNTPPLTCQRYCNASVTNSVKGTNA
As to the kind of experiment: flow cytometry, labeled soluble BCMA (8 to 1000 ng) on CAR T cells, gated on live CAR T cells. As for the experimental part: The anti-BCMA, anti-TACI (H/L), and anti-TACI (L/H) CAR T cells were evaluated for their capabilities to bind to soluble TACI (sTACI), soluble BCMA (sBCMA), and soluble APRIL (sAPRIL) was determined. T cells were washed 4 times in PBS 4% BSA, and incubated with labeled protein on ice at 4° C. for 40 min. After incubation, cells were washed twice with FACS buffer and flow cytometry was performed gating on live, CAR T cells to calculate protein binding. As evident in FIG. 12A, anti-TACI (L/H) CAR T cells have higher binding efficiency to soluble TACI than anti-TACI (H/L) CAR T cells.

For assay [3], the target named is T1, soluble TACI protein, fluorescently …. As to the kind of experiment: flow cytometry, fluorescent soluble TACI titrated 0.01 to 1000 nM on CAR T cells, MFI relative to untransduced cells, N=3. As for the experimental part:
as §1, §2

Assay [4] shares this target. As to the kind of experiment: flow cytometry, fluorescent soluble TACI titrated 0.01 to 1000 nM on CAR T cells, MFI relative to untransduced cells (panel Amount of soluble TACI binding), N=3.
Source text: as §3, §4

The target in assay [5] is T3, his-tagged recombinant TACI (UniProt O14836 1-165, limits assumed).
T3 construct: Analyte in the SPR assay; also called TNFRSF13B; not shown: his tag
T3 sequence (looked up): T1 sequence (looked up)
As to the kind of experiment: SPR; antibody captured on anti-mouse IgG chip, his-tagged recombinant TACI as analyte. As for the experimental part: The antibodies were analyzed by surface plasmon resonance according to the following procedure (FIG. 2). The binding of his-tagged recombinant TACI to anti-TACI antibody was captured to 120 RU (for TACI) on anti-mouse IgG.
In general terms: SPR reads the build-up and loss of mass on a sensor chip optically.

In general, EC50 (read off the curve) refers to the midpoint of the concentration-response curve. The term Kd denotes a measure of binding affinity in units of concentration. As usually defined, the koff is the first-order rate constant of dissociation. As usually defined, the kon is a measure of how fast the partners come together.

B1: Anti-TACI (H/L) CAR expressed on T cells (other)
chain: EVQLQQSGPELVKPGASVKISCKTSGYTFTESTIHWVKQSHGKSLEWIGGISPNNGGSPFNQKFKGKATLTVDKSSSTVYMELRSLSSEDSAVYYCAKWVRGAMDFWGQGTSVTVSSGGGGSGGGGSGGGGSGGGGSDIVLTQSPASLAVSLGQRATISCRASESVDYYGMSLMNWFQQKPGQPPKLVIYAASNQGSGVPARFSGSGSGTDFRLNIHPLEEDDTGMYFCQQSKEAPPTFGGGTKLEIKTTTPAPRPPTPAPTIASQPLSLRPEACRPAAGGAVHTRGLDFACDIYIWAPLAGTCGVLLLSLVITLYCKRGRKKLLYIFKQPFMRPVQTTQEEDGCSCRFPEEEEGGCELRVKFSRSADAPAYQQGQNQLYNELNLGRREEYDVLDKRRGRDPEMGGKPRRKNPQEGLYNELQKDKMAEAYSEIGMKGERRRGKGHDGLYQGLSTATKDTYDALHMQALPPR
notes: Chimeric antigen receptor: anti-TACI scFv VH-(G4S)4-VL, CD8 hinge/TM, 4-1BB, CD3zeta; The vector also expresses mCherry; also called Anti-TACI CAR (H-L)
As to B1, the “EC50 (read off the curve)” value in assay [1] was roughly 2 nM; in assay [2] it was roughly 2 nM; in assay [3], roughly 8 nM; in assay [4] it was roughly 8 nM. Further, in the assay with soluble BCMA, labeled, the binding result is given as “no binding (tested: 1000 ng)”.

B2: anti-TACI antibody (monoclonal antibody from hybridoma, Example 1) (antibody, V domains shown)
VH: EVQLQQSGPELVKPGASVKISCKTSGYTFTESTIHWVKQSHGKSLEWIGGISPNNGGSPFNQKFKGKATLTVDKSSSTVYMELRSLSSEDSAVYYCAKWVRGAMDFWGQGTSVTVSS
VL: not shown
notes: also called anti-TACI mAb
For the molecule B2, in assay [5], the Kd turned out to be 0.861 nM, the koff amounted to 0.00121 s⁻¹ and the kon was found to be 1.41e+06 M⁻¹ s⁻¹.

The values are drawn from US20220324964A1 (GENERAL HOSPITAL, published 2022).
